Test results published in PMC8847575, “HSL1 and BAM1/2 impact epidermal cell development by sensing distinct signaling peptides” (Nature Communications, 2022).
Values joined by “and” are separate entries in the source; they are usually repeats but may differ in a detail not shown here. Equal entries are not always repeated. Where two headings read alike, the source gives them in different places. Square brackets hold non-standard residues; d marks the D form. Ends that are not written are not given here. Peptide text beside a SMILES is read from it. Hyp = O=C(O)[C@@H]1C[C@@H](O)CN1

Assays:
BAM1 LRR ectodomain = molecular target: T1, BAM1 LRR ectodomain (Arabidopsis thaliana, UniProt O49545); assay: ITC, peptide titrated into BAM1 ectodomain; type: binding; details: ITC, 25 °C, mean ± SD of at least two independent experiments; for ΔH, peptide vs BAM1: peptide into BAM1 ectodomain, pH 5.0; for Kd (dissociation constant), peptide vs BAM1: peptide into BAM1 ectodomain (cell), 20 mM sodium citrate pH 5.0, 150 mM NaCl, N fitted to 1, n.d = no binding detected
T1 construct: BAM1 (residues 20–637, AT5G65700); azurocidin or Drosophila BIP signal peptide (secretion signal) (N); made in house; host or cells: Trichoplusia ni Tnao38 insect cells (baculovirus)
T1 sequence (O49545 20-637): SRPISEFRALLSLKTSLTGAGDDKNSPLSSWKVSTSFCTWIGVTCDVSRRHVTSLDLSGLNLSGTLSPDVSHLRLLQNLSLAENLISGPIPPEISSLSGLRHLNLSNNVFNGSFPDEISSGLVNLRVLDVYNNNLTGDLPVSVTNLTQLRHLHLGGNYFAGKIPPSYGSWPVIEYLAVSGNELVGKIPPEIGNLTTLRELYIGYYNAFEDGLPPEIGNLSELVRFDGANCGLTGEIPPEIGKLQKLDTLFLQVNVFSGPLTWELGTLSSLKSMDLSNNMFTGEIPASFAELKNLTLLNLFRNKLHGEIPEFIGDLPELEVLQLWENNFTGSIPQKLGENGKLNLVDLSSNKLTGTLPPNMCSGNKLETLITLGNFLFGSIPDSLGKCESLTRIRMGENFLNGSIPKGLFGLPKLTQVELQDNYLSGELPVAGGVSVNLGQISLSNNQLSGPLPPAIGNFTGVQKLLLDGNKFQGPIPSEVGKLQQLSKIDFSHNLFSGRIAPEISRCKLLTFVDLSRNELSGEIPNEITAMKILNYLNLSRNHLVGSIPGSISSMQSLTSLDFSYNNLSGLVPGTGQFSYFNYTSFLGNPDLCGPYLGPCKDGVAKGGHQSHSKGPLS
Source text: All genes used for protein expression in Trichoplusia ni Tnao38 cells[46] were codon optimized and cloned into a modified pFastBac vector (Geneva Biotech) providing an azurocidin[47] or Drosophila BIP signal peptide, a TEV (tobacco etch virus protease) cleavage site and a Strep-9xHis tandem affinity tag at their carboxy terminus. The genes used are coding for the Arabidopsis ectodomains of HSL1 (residues 17-618, AT1G28440), HAE (residues 20-620, AT4G28490) SERK1 (residues 24–213, AT1G71830), and BAM1 (residues 20–637, AT5G65700). To perform Grating-coupled interferometry (GCI) experiments, HSL1 was fused to a non-cleavable Avi-tag[49],[50]. Baculovirus generation was carried out in DH10 cells and virus amplification was done in Spodoptera frugiperda Sf9 cells. For protein expression, Trichoplusia ni Tnao38 cells were infected with HAE, HSL1, BAM1 and SERK1 virus with a multiplicity of infection (MOI) of 3. The cells were grown 1 day at 28 °C and two days at 22 °C at 110 rpm. After every expression round, secretion of our proteins was detected using an anti-His-HRP conjugated antibody from Roche (Ref:11965085001) in a 1:2000 dilution. […] Next, affinity tags were removed by incubating the purified proteins with recombinant His-tagged TEV protease, in a 1:50 ratio. The cleaved tag and the protease were separated from the ectodomains by a second Ni^2+ affinity step. Proteins were further purified by size-exclusion chromatography on a Superdex 200 Increase 10/300 GL column (GE Healthcare) equilibrated in 20 mM citric acid pH 5.0, 150 mM NaCl. Peak fractions containing the single proteins or complexes were concentrated using Amicon Ultra concentrators (Millipore, MWCO 10,000 for SERK1 and 30,000 for HAE, HSL1, and BAM1) and used for crystallization or biochemical experiments. Proteins were analyzed for purity and structural integrity by SDS-PAGE.
Experiments were performed at 25 °C using a MicroCal PEAQ-ITC (Malvern Instruments) with a 200 µL standard cell and a 40 μL titration syringe. HSL1, BAM1, and SERK1 proteins were gel-filtrated into the ITC buffer (20 mM sodium citrate pH 5.0, 150 mM NaCl). Molar protein concentrations for HSL1, BAM1, and SERK1 were calculated using their molar extinction coefficient and a molecular weight of 74,896 and 27,551 Da, respectively as previously determined. A typical experiment consisted of injecting 2 μL of a range between 75 and 600 μM solution of ligand into 10 to 30 μM HAE, HSL1, or BAM1 solution in the cell at 150 s intervals and 500 rpm stirring speed. The SERK1 vs HAE/HSL1-peptide experiments were performed by titrating 100 µM SERK1 in the cell, using the same injection pattern. ITC data were corrected for the heat of dilution by subtracting the mixing enthalpies for titrant solution injections into protein-free ITC buffer. Experiments were done in duplicates or triplicates, otherwise specified, and data were analyzed using the MicroCal PEAQ-ITC Analysis Software provided by the manufacturer. […] The N values were fitted to 1 in the analysis.

[1] = molecular target: T2, HSL1 (HAESA-LIKE 1) ectodomain (Arabidopsis, UniProt Q9SGP2 17-618); assay: ITC
T2 chain: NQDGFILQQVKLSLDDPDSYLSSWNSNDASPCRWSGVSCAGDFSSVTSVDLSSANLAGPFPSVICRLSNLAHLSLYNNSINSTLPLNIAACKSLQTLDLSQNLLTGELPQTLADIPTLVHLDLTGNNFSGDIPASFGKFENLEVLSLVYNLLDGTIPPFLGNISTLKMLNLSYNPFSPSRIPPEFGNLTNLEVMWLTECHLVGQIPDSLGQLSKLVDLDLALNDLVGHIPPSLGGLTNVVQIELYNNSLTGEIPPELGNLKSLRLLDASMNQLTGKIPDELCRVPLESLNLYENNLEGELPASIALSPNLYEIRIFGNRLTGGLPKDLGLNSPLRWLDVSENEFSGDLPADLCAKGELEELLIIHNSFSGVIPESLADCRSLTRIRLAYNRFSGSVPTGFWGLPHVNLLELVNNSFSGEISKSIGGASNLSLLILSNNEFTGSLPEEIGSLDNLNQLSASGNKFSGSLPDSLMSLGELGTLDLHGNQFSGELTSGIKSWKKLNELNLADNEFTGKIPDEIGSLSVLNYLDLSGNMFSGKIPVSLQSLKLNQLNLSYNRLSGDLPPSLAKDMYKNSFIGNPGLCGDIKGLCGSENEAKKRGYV

[2] = molecular target: T3, biotinylated HSL1 ectodomain with Avi-tag (Arabidopsis, UniProt Q9SGP2 17-618, biotin on the Avi-tag (BirA))
T3 chain: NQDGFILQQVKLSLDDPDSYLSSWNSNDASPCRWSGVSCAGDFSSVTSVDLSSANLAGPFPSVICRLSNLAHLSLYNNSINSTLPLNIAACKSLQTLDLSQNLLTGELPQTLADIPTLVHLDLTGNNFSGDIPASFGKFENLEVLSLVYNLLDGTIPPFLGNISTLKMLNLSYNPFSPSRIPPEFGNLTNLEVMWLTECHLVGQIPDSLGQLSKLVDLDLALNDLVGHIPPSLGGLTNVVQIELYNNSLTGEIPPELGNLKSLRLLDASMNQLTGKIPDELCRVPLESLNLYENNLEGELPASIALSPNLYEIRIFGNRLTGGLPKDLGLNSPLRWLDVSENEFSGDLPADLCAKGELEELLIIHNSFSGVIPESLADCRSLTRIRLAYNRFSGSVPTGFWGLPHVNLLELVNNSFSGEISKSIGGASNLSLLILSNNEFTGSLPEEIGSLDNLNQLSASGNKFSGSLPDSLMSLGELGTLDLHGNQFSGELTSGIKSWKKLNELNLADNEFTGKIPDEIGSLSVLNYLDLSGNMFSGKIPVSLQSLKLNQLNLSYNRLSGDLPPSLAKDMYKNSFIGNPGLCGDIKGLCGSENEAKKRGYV

[3] = molecular target: T3, biotinylated HSL1 ectodomain with …
[4] = molecular target: T3, biotinylated HSL1 ectodomain with …; assay: GCI
[5] = molecular target: T3, biotinylated HSL1 ectodomain with …; assay: GCI
[6] = molecular target: T4, BAM1 (BARELY ANY MERISTEM 1) ectodomain (Arabidopsis, UniProt O49545 20-637); assay: ITC
T4 chain: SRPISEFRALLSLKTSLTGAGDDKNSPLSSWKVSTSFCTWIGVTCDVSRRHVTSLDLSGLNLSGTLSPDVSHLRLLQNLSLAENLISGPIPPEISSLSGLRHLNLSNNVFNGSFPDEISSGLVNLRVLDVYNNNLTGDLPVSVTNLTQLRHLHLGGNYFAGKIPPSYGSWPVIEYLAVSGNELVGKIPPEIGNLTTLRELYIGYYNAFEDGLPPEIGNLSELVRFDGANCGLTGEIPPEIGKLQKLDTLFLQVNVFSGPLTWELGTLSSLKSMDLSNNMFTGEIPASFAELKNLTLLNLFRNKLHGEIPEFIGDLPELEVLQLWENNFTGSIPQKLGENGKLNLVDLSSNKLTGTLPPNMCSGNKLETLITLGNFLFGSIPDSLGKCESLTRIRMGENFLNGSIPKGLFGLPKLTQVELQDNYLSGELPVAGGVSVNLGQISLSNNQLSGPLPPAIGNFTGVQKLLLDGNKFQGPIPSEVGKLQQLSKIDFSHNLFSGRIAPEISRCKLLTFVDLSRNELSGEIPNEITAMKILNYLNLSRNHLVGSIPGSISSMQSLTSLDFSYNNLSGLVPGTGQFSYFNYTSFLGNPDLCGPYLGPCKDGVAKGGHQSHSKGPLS

CC(C)C[C@H](NC(=O)[C@@H]1CCCN1)C(=O)N[C@H](C(=O)N1CCC[C@H]1C(=O)N[C@@H](CO)C(=O)NCC(=O)N1C[C@H](O)C[C@H]1C(=O)N[C@@H](CC(N)=O)C(=O)N1CCC[C@H]1C(=O)N[C@@H](CC(C)C)C(=O)N[C@@H](Cc1c[nH]cn1)C(=O)N[C@@H](CC(N)=O)C(=O)O)C(C)C [CLE9^R109P] (H-PLVPSG[Hyp]NPLHN-OH)
ΔH, peptide vs BAM1 (BAM1 LRR ectodomain): -26 ± 8 kcal/mol

CC[C@H](C)[C@H](NC(=O)[C@@H]1CCCN1)C(=O)N[C@H](C(=O)N1CCC[C@H]1C(=O)N[C@@H](CO)C(=O)NCC(=O)N1C[C@H](O)C[C@H]1C(=O)N[C@@H](CC(N)=O)C(=O)N1CCC[C@H]1C(=O)N[C@@H](CC(C)C)C(=O)N[C@@H](Cc1c[nH]cn1)C(=O)N[C@@H](CC(N)=O)C(=O)O)C(C)C [CLE9^R109PL110I] (H-PIVPSG[Hyp]NPLHN-OH)
ΔH, peptide vs BAM1 (BAM1 LRR ectodomain): -27 ± 11 kcal/mol

CC(C)C[C@H](NC(=O)[C@@H](N)CCCNC(=N)N)C(=O)N[C@H](C(=O)N1CCC[C@H]1C(=O)N[C@@H](CO)C(=O)N[C@@H](C)C(=O)N1C[C@H](O)C[C@H]1C(=O)N[C@@H](CO)C(=O)N[C@@H](CCCCN)C(=O)N[C@@H](CCCNC(=N)N)C(=O)N[C@@H](Cc1c[nH]cn1)C(=O)N[C@@H](CC(N)=O)C(=O)O)C(C)C [IDA^P58RI59LP60V] (H-RLVPSA[Hyp]SKRHN-OH)
Kd (dissociation constant), peptide vs BAM1 (BAM1 LRR ectodomain): restore binding to BAM1

CC(C)C[C@H](NC(=O)[C@@H]1CCCN1C(=O)[C@H](CC(N)=O)NC(=O)[C@@H]1C[C@@H](O)CN1C(=O)CNC(=O)[C@H](CO)NC(=O)[C@@H]1CCCN1C(=O)[C@@H]1CCCN1C(=O)[C@H](CC(C)C)NC(=O)[C@@H](N)CCCNC(=N)N)C(=O)N[C@@H](Cc1c[nH]cn1)C(=O)N[C@@H](CC(N)=O)C(=O)O [CLE9^V111P] (H-RLPPSG[Hyp]NPLHN-OH)
ΔH, peptide vs BAM1 (BAM1 LRR ectodomain): -19 ± 8.3 kcal/mol

CC[C@H](C)[C@H](NC(=O)[C@@H]1CCCN1)C(=O)N1CCC[C@H]1C(=O)N1CCC[C@H]1C(=O)N[C@@H](CO)C(=O)NCC(=O)N1C[C@H](O)C[C@H]1C(=O)N[C@@H](CC(N)=O)C(=O)N1CCC[C@H]1C(=O)N[C@@H](CC(C)C)C(=O)N[C@@H](Cc1c[nH]cn1)C(=O)N[C@@H](CC(N)=O)C(=O)O [CLE9^R109PL110IV111P] (H-PIPPSG[Hyp]NPLHN-OH)
Kd (dissociation constant), peptide vs BAM1 (BAM1 LRR ectodomain): non-detectable binding

CC(C)C[C@H](NC(=O)[C@@H]1CCCN1C(=O)[C@H](CC(N)=O)NC(=O)[C@@H]1C[C@@H](O)CN1C(=O)CNC(=O)[C@H](CO)NC(=O)[C@@H]1CCCN1C(=O)[C@@H]1CCCN1C(=O)[C@H](CC(C)C)NC(=O)[C@@H]1CCCN1)C(=O)N[C@@H](Cc1c[nH]cn1)C(=O)N[C@@H](CC(N)=O)C(=O)O [CLE9^R109PV111P] (H-PLPPSG[Hyp]NPLHN-OH)
ΔH, peptide vs BAM1 (BAM1 LRR ectodomain): -3.7 ± 0.4 kcal/mol

B1: IDL1 (IDA-LIKE 1) mature peptide (peptide)
chain: YVLVPPSGPSMRHN
modifications: not fully specified; also: conserved central hydroxyproline, position not given here
Kd [1]: 590 nM

YVPVPASGPSRKHN (also: conserved central hydroxyproline, position not given here) [IDL2 (IDA-LIKE 2) mature peptide]
Kd [1]: 121 nM

B2: IDL3 (IDA-LIKE 3) mature peptide (peptide)
chain: PVPTSGPSRKHN
modifications: not fully specified; also: conserved central hydroxyproline, position not given here
Kd [1]: 690 nM | koff [2]: 0.59 s⁻¹ and 0.49 s⁻¹ | Kd [3]: 608 nM and 1000 nM | Kd [4]: 800 nM | koff [5]: 0.55 s⁻¹

PVPASAPSRKHN [IDL4 (IDA-LIKE 4) mature peptide]
Kd [1]: 2020 nM | koff [2]: 0.52 s⁻¹ and 0.75 s⁻¹ | Kd [3]: 2700 nM and 1000 nM | Kd [4]: 1850 nM | koff [5]: 0.65 s⁻¹

RLVPSAPSKRHN [IDA^P58RI59LP60V peptide]
Kd [6]: 980 nM

PLVPSGPNPLHN [CLE9 variant with the first residue substituted by the corresponding one of IDA]
Kd [6]: 91 nM

B3: IDA (INFLORESCENCE DEFICIENT IN ABSCISSION) mature peptide (peptide)
chain: YVPIPPSAPSKRHN
modifications: also: hydroxyproline at Pro64 (precursor numbering), position in chain not settled
Kd [1]: 400 nM | koff [2]: 0.15 s⁻¹ and 0.12 s⁻¹ | Kd [3]: 655 nM and 422 nM | Kd [4]: 580 nM | koff [5]: 0.127 s⁻¹

PLPPSGPNPLHN (also: Hyp112 and Hyp115 presumed as in wild-type) [CLE9^R109PV111P]
Kd [6]: 2240 nM
